Assay results from patent publication US6835378B2, “Method and compositions for inhibiting thrombin-induced coagulation” (The Texas A&M University System University, priority 2001, dated 2004).
“Also recorded” adds a separate entry of the source.

Legend:
immobilized Fg = molecular target: T1, immobilized Fg (Homo sapiens, UniProt P02675); experiment: ELISA: rSdrG(50-597) binding to immobilized Fg
T1 construct: purchased Enzyme Research Labs
T1 sequence (P02675 31-491): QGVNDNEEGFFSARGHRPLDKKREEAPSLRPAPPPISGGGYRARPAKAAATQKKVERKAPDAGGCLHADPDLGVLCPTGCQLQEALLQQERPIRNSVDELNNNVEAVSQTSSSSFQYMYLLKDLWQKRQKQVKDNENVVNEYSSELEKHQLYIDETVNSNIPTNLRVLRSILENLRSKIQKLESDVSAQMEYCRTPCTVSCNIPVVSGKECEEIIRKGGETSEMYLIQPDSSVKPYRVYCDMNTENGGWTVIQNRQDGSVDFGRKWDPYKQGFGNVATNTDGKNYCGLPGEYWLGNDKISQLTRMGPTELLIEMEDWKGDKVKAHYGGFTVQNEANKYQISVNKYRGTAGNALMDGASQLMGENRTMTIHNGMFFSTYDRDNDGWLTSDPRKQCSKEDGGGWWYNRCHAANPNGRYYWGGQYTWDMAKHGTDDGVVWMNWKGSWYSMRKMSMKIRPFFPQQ
T1 sequence (P02671 20-629 partner limits assumed): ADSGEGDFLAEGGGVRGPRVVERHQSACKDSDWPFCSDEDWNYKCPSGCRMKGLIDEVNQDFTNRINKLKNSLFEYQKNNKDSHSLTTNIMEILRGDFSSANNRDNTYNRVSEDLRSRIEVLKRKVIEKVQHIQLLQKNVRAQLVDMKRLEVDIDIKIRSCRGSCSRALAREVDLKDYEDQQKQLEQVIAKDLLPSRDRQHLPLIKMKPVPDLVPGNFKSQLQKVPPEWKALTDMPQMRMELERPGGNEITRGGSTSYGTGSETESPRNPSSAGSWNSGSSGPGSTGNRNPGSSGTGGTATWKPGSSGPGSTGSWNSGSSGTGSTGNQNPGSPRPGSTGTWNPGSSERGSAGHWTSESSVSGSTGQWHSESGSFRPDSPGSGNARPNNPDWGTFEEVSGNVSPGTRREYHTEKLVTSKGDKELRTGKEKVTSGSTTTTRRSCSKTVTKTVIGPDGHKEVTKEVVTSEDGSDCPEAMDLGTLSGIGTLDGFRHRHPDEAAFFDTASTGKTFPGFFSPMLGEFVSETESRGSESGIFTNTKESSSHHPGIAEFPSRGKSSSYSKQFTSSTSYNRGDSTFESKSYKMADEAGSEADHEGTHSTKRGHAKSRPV
T1 sequence (P02679 27-433 partner limits assumed): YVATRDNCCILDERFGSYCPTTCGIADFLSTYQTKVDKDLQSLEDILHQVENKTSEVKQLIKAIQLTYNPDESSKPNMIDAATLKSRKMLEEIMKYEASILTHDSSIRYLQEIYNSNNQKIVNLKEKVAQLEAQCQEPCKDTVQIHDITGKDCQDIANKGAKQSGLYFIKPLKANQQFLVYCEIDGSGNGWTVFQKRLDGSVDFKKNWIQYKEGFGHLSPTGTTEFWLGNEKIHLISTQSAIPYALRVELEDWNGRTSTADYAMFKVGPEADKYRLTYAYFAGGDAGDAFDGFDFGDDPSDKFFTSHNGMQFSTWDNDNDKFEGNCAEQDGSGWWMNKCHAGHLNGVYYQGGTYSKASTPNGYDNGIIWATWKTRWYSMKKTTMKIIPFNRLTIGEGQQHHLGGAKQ
Method: ELISA—Microtiter plates (Immulon 4, Dynatech Laboratories Inc.) were coated with 1 μg of Fg (Enzyme Research Labs) in PBS, pH 7.5 for 18 h at 4° C. Plates were washed three times with PBS, 0.05% Tween 20 (PBST) and blocked with 1% (w/v) bovine serum albumin (BSA) for 1 h at room temperature. Plates were washed three times with PBST and rSdrG(50-597), diluted into PBS, was added to the wells and the plate was incubated for 1 h at room temperature. Plates were washed three times with PBST and bound rSdrG(50-597) was detected by adding a 1:2000 dilution of an anti-His-tag mAb (Clontech) in PBST, 0.1% BSA. Plates were incubated for 1 h at room temperature and then washed three times with PBST. A 1:2000 dilution of goat anti-mouse alkaline phosphatase (AP)-conjugated polyclonal antibodies (Bio-Rad) in PBST, 0.1% BSA were added to the wells and the plate was incubated for 1 h at room temperature. Plates were washed three times with PBST and developed with p-nitrophenyl phosphate (Sigma) in 1 M diethanolamine, 0.5 mM MgCl2, pH 9.0 at room temperature for ˜30 min. Plates were read at 405 nm using an ELISA plate reader (Thermomax microplate reader, Molecular Devices).

[1] = test system: Serine protease-digested Fg; experiment: ELISA with serine protease-treated immobilized Fg; type: binding, human; settings: 30 min at room temperature
Method: Fg coated microtiter wells were pretreated for 30 min at room temperature with ancrod (•), PBS (untreated) (▾), thrombin (♦) or contortrixobin (▪). Plates were blocked, washed and incubated with a serine protease inhibitor (1 NIH unit/ml hirudin for thrombin and 100 μg/ml PMSF for ancrod and contortrixobin). Biotin labeled rSdrG(50-597) (25-1000 nM) was incubated in the wells for 1 h at room temperature. Values represent the mean±standard deviation of triplicate wells.
The A[…] chain may interfere with rSdrG(50-597) binding to the Bβ chain and this observation may be due to the absence of FpA, thus making the N-terminus of the Bβ chain more easily accessible.

B1: rSdrG(50-597): recombinant His-tagged A region (residues 50-597) of SdrG, a fibrinogen-binding MSCRAMM from S. epidermidis (protein)
chain: HHHHHHAEENTVQDVKDSNMDDELSDSNDQSSNEEKNDVINNSQSINTDDDNQIKKEETNSNDAIENRSKDITQSTTNVDENEATFLQKTPQDNTQLKEEVVKEPSSVESSNSSMDTAQQPSHTTINSEASIQTSDNEENSRVSDFANSKIIESNTESNKEENTIEQPNKVREDSITSQPSSYKNIDEKISNQDELLNLPINEYENKVRPLSTTSAQPSSKRVTVNQLAAEQGSNVNHLIKVTDQSITEGYDDSDGIIKAHDAENLIYDVTFEVDDKVKSGDTMTVNIDKNTVPSDLTDSFAIPKIKDNSGEIIATGTYDNTNKQITYTFTDYVDKYENIKAHLKLTSYIDKSKVPNNNTKLDVEYKTALSSVNKTITVEYQKPNENRTANLQSMFTNIDTKNHTVEQTIYINPLRYSAKETNVNISGNGDEGSTIIDDSTIIKVYKVGDNQNLPDSNRIYDYSEYEDVTNDDYAQLGNNNDVNINFGNIDSPYIIKVISKYDPNKDDYTTIQQTVTMQTTINEYTGEFRTASYDNTIAFSTSSGQGQGDLPPE
binding to immobilized Fg (immobilized Fg): bound immobilized Fg
binding to Fg treated with contortrixobin [1]: could not bind; also recorded: not able to bind
binding to Fg treated with thrombin [1]: could not bind
binding to Fg treated with ancrod ([1]; versus untreated Fg): bind better; also recorded: still able to bind
